In publication PMC7046344:
One block for each molecule: values may come before it.

How the values were obtained:
[1] = target: Spn-F-FLAG (UniProt Q9V9Y9); test: co-immunoprecipitation (IP anti-FLAG, IB myc, band ratio by ImageJ); details: lysates of S2 cells co-expressing SpnF-FLAG and myc-Rab11; parent: 1
[2] = target: T1, Spn-F-FLAG, Q9V9Y9; test: as above; details: chain shown with the change; lysates of S2 cells co-expressing SpnF-FLAG and myc-Rab11; parent: 1
T1 chain: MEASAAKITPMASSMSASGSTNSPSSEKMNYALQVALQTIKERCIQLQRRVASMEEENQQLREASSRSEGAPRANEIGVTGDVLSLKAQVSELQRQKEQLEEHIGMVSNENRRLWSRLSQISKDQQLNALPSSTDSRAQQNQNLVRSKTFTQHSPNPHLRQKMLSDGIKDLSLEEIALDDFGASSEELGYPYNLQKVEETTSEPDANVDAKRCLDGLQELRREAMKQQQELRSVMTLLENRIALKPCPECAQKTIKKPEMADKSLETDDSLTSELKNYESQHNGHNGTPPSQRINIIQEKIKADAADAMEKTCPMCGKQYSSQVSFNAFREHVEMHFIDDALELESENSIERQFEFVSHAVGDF

other: myc/FLAG ratio [1]: 0.14
Molecule: myc-Rab11 (from UniProt O18335) CA

other: myc/FLAG ratio [2]: 1.07
B1: myc-Rab11, O18335 S25N (protein)
chain: MGAREDEYDYLFKVVLIGDSGVGKNNLLSRFTRNEFNLESKSTIGVEFATRSIEVDGKTIKAQIWDTAGQERYRAITSAYYRGAVGALLVYDIAKHLTYENVERWLRELRDHADQNIVIMLVGNKSDLRHLRSVPTDEAKLFAERNGLSFIETSALDSTNVETAFQNILTEIYRIVSQKQIRDPPEGDVIRPSNVEPIDVKPTVTADVRKQCCQ
